Test results from US20220064322A1 (JACOBIO PHARMACEUTICALS, published 2022).
Positions count from the first letter of the chain named. Where two headings read alike, the source gives them in different places.

Legend:
[1] = target: T1, cynomolgus CD73 on the cell surface (293T/17-cynoCD73 cells) (cynomolgus (Macaca fascicularis), UniProt P21589 27-547 (human entry)); assay: cell-based or functional assay
T1 chain: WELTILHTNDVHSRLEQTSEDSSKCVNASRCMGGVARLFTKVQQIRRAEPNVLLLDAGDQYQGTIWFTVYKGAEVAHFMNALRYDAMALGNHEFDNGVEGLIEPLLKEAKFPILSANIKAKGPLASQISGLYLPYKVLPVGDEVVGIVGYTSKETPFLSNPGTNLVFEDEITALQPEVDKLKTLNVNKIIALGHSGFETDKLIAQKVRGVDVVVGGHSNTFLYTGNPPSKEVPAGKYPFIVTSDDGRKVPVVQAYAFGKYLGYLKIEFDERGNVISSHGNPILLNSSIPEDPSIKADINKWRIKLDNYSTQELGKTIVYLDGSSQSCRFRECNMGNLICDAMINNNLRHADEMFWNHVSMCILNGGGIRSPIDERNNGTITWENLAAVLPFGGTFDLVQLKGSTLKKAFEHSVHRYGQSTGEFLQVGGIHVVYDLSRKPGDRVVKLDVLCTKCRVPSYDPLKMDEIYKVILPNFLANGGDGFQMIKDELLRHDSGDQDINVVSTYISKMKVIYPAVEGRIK

[2] = target: T2, human CD73 ecto-domain recombinant protein (huCD73) (human, UniProt P21589 27-547); assay: indirect ELISA, coated huCD73 recombinant protein
T2 construct: also called soluble huCD73; soluble recombinant CD73
T2 sequence: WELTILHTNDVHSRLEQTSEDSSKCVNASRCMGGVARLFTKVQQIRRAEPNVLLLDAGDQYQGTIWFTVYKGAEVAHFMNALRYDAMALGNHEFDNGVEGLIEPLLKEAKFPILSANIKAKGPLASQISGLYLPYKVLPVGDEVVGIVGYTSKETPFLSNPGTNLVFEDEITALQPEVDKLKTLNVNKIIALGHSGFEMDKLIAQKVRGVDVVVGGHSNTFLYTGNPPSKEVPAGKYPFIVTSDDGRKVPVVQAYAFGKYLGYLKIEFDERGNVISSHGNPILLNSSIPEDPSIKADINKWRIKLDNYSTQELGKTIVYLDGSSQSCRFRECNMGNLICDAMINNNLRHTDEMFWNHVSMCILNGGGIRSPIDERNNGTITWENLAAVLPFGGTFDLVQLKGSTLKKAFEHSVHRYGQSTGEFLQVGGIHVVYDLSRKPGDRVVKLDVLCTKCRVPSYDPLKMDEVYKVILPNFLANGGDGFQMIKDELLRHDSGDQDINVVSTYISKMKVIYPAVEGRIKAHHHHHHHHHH
Procedure: (§1) Incubated with gradient diluted 100 μL/well of antibodies for 1 h at room temperature. After the plates were washed 3 times with 200 ul/well of PBST, 100 ul of diluted HRP-labeled secondary antibody at a ratio of 1:5000 was added to each well, and the plates were incubated for 1 hour at room temperature. The plates were washed 3 times with 200 ul/well of PBST, 100 ul of TMB was added to each well and reacted for 5 minutes at room temperature in the dark. […] read the OD value. The affinity of humanized antibodies and parent antibodies were similar to the antigen (table 9).

[3] = target: T2, human CD73 ecto-domain recombinant …; assay: indirect ELISA, plate coated with 1 ug/ml huCD73 recombinant protein, HRP-labelled secondary antibody, RFU
Procedure: as §1

[4] = target: T1, cynomolgus CD73 on the cell surface …; assay: flow cytometry on 293T/17-Cyno CD73 cells
Procedure: (§2) 2×10⁶ cells resuspended in PBS buffer were distributed into 96-well plates and incubated with gradient diluted humanized antibodies for 1 h at refrigerator 4° C. or on ice, then the cells was centrifuged for 3 min 1500 rpm at 4° C. and washed three times by PBS, and diluted APC-labeled goat anti-human polyclonal antibody (Biolegend) were incubated for 30 min at refrigerator 4° C. Finally, the cells were washed three times with PBS as described above and analyzed on MACSQuant flow cytometer. GraphPad Prism software was used to generate data graphs and statistical affinity data.
(§3) The samples to be tested were incubated for 1 h at 4° C. after gradient dilution. After washing, 100 μL of APC-labeled secondary antibody was added to each well and incubated for 30 min. After washing, detecting on machine and the fluorescence value was read. GraphPad Prism software was used to generate data graphs and statistical affinity data.

[5] = target: T1, cynomolgus CD73 on the cell surface …; assay: flow cytometry on 293T/17-Cyno CD73 cells, curve fit
Procedure: as §2, §3

[6] = target: T2, human CD73 ecto-domain recombinant …; assay: indirect ELISA, coated huCD73 recombinant protein, curve fit
Procedure: as §1

[7] = target: T2, human CD73 ecto-domain recombinant …; assay: indirect ELISA, coated soluble huCD73, curve fit
Procedure: (§4) The indirect ELISA method was applied to evaluate the binding ability of each positive clone to soluble huCD73 protein. Soluble huCD73 was coated, and gradient diluted samples were incubated, then HPR-labeled secondary antibody was added, finally TMB was added to develop the color, and OD450 was read after termination.
(§5) 1 ug/ml of recombinant CD73 protein was coated on ELISA plates (Coning), incubate overnight at 4° C. The next day, wash 5 times in PBS and blocked with 200 ul/well 2% skimmed milk, a certain dose range of CD73 antibodies were incubated for 1 h at room temperature. Wash 5 times with PBST washing buffer (PBS, 0.05% Tween 20), add HRP-conjugated goat anti-mouse IgG (H+L) (Promega) and incubate at room temperature for 1 h to detect bound anti-CD73 antibodies; wash the plate 5 times again and add TMB (Life Technologies) for color development for 5 to 10 min; finally the reaction was stopped by adding 1N HCl, and the OD value was measured at 450 nm. GraphPad Prism software was used to generate data graphs and statistical affinity data.

[8] = target: T2, human CD73 ecto-domain recombinant …; assay: cell-based or functional assay
[9] = target: T2, human CD73 ecto-domain recombinant …; assay: indirect ELISA, coated soluble huCD73, HRP-labelled secondary antibody, OD450
Procedure: as §4, §5

[10] = target: T2, human CD73 ecto-domain recombinant …; assay: indirect ELISA, coated soluble huCD73
Procedure: as §4, §5

[11] = target: T1, cynomolgus CD73 on the cell surface …; assay: cell-based or functional assay

B1: 94H1L3 hIgG2 (antibody)
heavy: QVQLVQSGAEVKKPGASVKVSCKASGYTFTSYWMHWVRQAPGQGLEWMGYINPSSGYTKSNQKFKDRVTMTADTSTSTAYMELSSLRSEDTAVYYCGRWLLSAWFAYWGQGTLVTVSSASTKGPSVFPLAPCSRSTSESTAALGCLVKDYFPEPVTVSWNSGALTSGVHTFPAVLQSSGLYSLSSVVTVPSSNFGTQTYTCNVDHKPSNTKVDKTVERKCCVECPPCPAPPVAGPSVFLFPPKPKDTLMISRTPEVTCVVVDVSHEDPEVQFNWYVDGVEVHNAKTKPREEQFNSTFRVVSVLTVVHQDWLNGKEYKCKVSNKGLPAPIEKTISKTKGQPREPQVYTLPPSREEMTKNQVSLTCLVKGFYPSDIAVEWESNGQPENNYKTTPPMLDSDGSFFLYSKLTVDKSRWQQGNVFSCSVMHEALHNHYTQKSLSLSPGK
light: DIQMTQSPSSLSASVGDRVTITCKASQDINTYLSWFQQKPGKSPKSLIYRSNILVDGVPSRFSGSGSGQDYTLTISSLQPEDFAIYYCLQYDDFPYTFGQGTKLEIKRTVAAPSVFIFPPSDEQLKSGTASVVCLLNNFYPREAKVQWKVDNALQSGNSQESVTEQDSKDSTYSLSSTLTLSKADYEKHKVYACEVTHQGLSSPVTKSFNRGEC
- IC50, blockade of 5'exonuclease activity on 293T/17-Cyno CD73 cells [1]: 0.021 nM

B2: JB94H2L1 (antibody, human IgG1, kappa, V domains shown)
VH: QVQLVQSGAEVKKPGASVKVSCKASGYTFTSYWMHWVRQRPGQGLEWMGYINPSSGYTKSNQKFKDRVTLTADTSTSTAYMELSSLRSEDTAVYYCGRWLLSAWFAYWGQGTLVTVSS
VL: DIQMTQSPSSLSASVGDRVTITCKASQDINTYLSWFQQKPGKAPKSLIYRSNILVDGVPSRFSGSGSGQDFTLTISSLQPEDFAIYYCLQYDDFPYTFGQGTKLEIKR
notes: Humanized antibody of the 94 clone, human IgG1 / kappa
- EC50 [2]: 0.0252 nM
- EC50 (read off the curve) [3]: ~0.02 µg/mL
- EC50 [4]: 7.97 nM
- Bottom [5]: 0.22 fluorescence
- Top [5]: 82 fluorescence
- Bottom [6]: -142 OD value
- Top [6]: 7110 OD value
- IC50, blockade of 5'exonuclease activity on 293T/17-Cyno CD73 cells [1]: 0.0001 nM

B3: JB94H3L3 (antibody, human IgG1, kappa, V domains shown)
VH: B2 VH with V5Q, V20L, M48I, V68A
VL: B2 VL with A43S, F71Y
notes: as for B2
- EC50 [2]: 0.0292 nM
- EC50 (read off the curve) [3]: ~0.03 µg/mL
- EC50 [4]: 9.82 nM
- Bottom [5]: 1.4 fluorescence
- Top [5]: 125 fluorescence
- Bottom [6]: 320 OD value
- Top [6]: 8900 OD value
- IC50, blockade of 5'exonuclease activity on 293T/17-Cyno CD73 cells [1]: 0.002 nM

B4: JB94Chi (antibody, human IgG1, kappa)
heavy: not shown
light: DIRMTQSPSSMYASLGERVTITCKASQDINTYLSWFQQKPGKSPKSLIYRSNILVDGVPSRFSGSGSGQDYSLTISSLEYEDMGIYYCLQYDDFPYTFGGGTKLEIKRTVAAPSVFIFPPSDEQLKSGTASVVCLLNNFYPREAKVQWKVDNALQSGNSQESVTEQDSKDSTYSLSSTLTLSKADYEKHKVYACEVTHQGLSSPVTKSFNRGEC
notes: Chimeric antibody: mouse Fv of 94A12G11F with human IgG1 and human kappa constant regions
- EC50 [2]: 0.0357 nM
- EC50 (read off the curve) [3]: ~0.03 µg/mL
- EC50 [4]: 8.59 nM
- Bottom [5]: 1.45 fluorescence
- Top [5]: 124 fluorescence
- Bottom [6]: 152 OD value
- Top [6]: 8470 OD value
- IC50, blockade of 5'exonuclease activity on 293T/17-Cyno CD73 cells [1]: 0.001 nM

B5: 66F2A8D6 (antibody, mouse IgG1, kappa)
heavy: QVHLQQSGAELAKPGASVNLSCKASGYAFTSYWMHWVKQRPGQGLEWIGYINPSSGLAKYNQKFKDKATLTTDKSSNTAYMQLSSLTYDDSAVYYCGRWLLSAWFAYWGQGTLVTVSAAKTTPPSVYPLAPGSAAQTNSMVTLGCLVKGYFPEPVTVTWNSGSLSSGVHTFPAVLQSDLYTLSSSVTVPSSTWPSETVTCNVAHPASSTKVDKKIVPRDCGCKPCICTVPEVSSVFIFPPKPKDVLTITLTPKVTCVVVDISKDDPEVQFSWFVDDVEVHTAQTQPREEQFNSTFRSVSELPIMHQDWLNGKEFKCRVNSAAFPAPIEKTISKTKGRPKAPQVYTIPPPKEQMAKDKVSLTCMITDFFPEDITVEWQWNGQPAENYKNTQPIMDTDGSYFVYSKLNVQKSNWEAGNTFTCSVLHEGLHNHHTEKSLSHSPGK
light: DIKMTQSPSSIYASLGERVTITCKASQGINTYLSWFQQKPGKSPKTLIYRANILVDGVPSRFSGSGSGQDYSLTINSLEYEDMGIYYCLQYDEFPYTFGGGTKLEIKRADAAPTVSIFPPSSEQLTSGGASVVCFLNNFYPKDINVKWKIDGSERQNGVLNSWTDQDSKDSTYSMSSTLTLTKDEYERHNSYTCEATHKTSTSPIVKSFNRNEC
notes: Hybridoma antibody, mouse IgG1 / mouse kappa full chains
- Bottom [7]: 0.165 OD450
- Top [7]: 3.11 OD450
- Bottom (lower plateau of the fitted curve), blockade of soluble huCD73 enzyme activity (AMP hydrolysis, luciferase/CellTiter-Glo) [8]: 6.36
- IC50, blockade of soluble huCD73 enzyme activity (AMP hydrolysis, luciferase/CellTiter-Glo) [8]: 1.96 nM
- Top (upper plateau of the fitted curve), blockade of soluble huCD73 enzyme activity (AMP hydrolysis, luciferase/CellTiter-Glo) [8]: 86.1
- EC50 (read off the curve) [9]: ~0.2 nM
- EC50 [10]: 0.153 nM
- IC50, blockade of 5'exonuclease activity on 293T/17-Cyno CD73 cells [11]: 0.077 nM

B6: JB24H3L2 (antibody, human IgG1, kappa, V domains shown)
VH: QVQLVQSGAEVKKPGASVKMSCKASGYTFTDYNMHWVKQSHGKSLEWIGYIKPHNAGTTYNPKFEGRATLTVDTSASTAYMELRSLRSEDTAVYYCVRSDFLYWYFDVWGQGTTVTVSS
VL: DIQMTQSPSSLSASVGDRVTITCTASSSVSSSYLHWYQQKPGSAPKLWIYSTSNLASGVPSRFSGSGSGTDYTLTISSLQPEDFATYYCHQYHRSPLTFGAGTKLEIKR
notes: Humanized antibody of JB24Chi, human IgG1 / kappa
- EC50 [2]: 0.0208 nM
- EC50 (read off the curve) [3]: ~0.2 µg/mL
- EC50 [4]: 3.59 nM
- Bottom [5]: 0.509 fluorescence
- Top [5]: 48.7 fluorescence
- Bottom [6]: 89.1 OD value
- Top [6]: 7140 OD value
- IC50, blockade of 5'exonuclease activity on 293T/17-Cyno CD73 cells [1]: 0.004 nM

B7: JB24H3L3 (antibody, human IgG1, kappa, V domains shown)
VH: B6 VH
VL: B6 VL with Q3V, A44S, S61G
notes: as for B6
- EC50 [2]: 0.0228 nM
- EC50 (read off the curve) [3]: ~0.2 µg/mL
- EC50 [4]: 3.73 nM
- Bottom [5]: 0.917 fluorescence
- Top [5]: 34 fluorescence
- Bottom [6]: 9.8 OD value
- Top [6]: 7310 OD value
- IC50, blockade of 5'exonuclease activity on 293T/17-Cyno CD73 cells [1]: 0.003 nM
